Measured values: patent US9637538

How the values were obtained:
[1] = biological target: HLA class II antigens (HLA-DR, HLA-DQ and HLA-DP); test: Luminex, Labscreen Mixed, each of the 5 class II bead types, antibody at 2 µg/ml
[2] = biological target: HLA class II antigens (HLA-DR, HLA-DQ and HLA-DP); test: Luminex dose/response, average over 5 class II bead types, antibody at 2 × 10^0 µg/ml
[3] = biological target: HLA class II antigens (HLA-DR, HLA-DQ and HLA-DP); test: Luminex dose/response, average over 5 class II bead types, antibody at 2 × 10^-3 µg/ml
[4] = biological target: HLA class II antigens (HLA-DR, HLA-DQ and HLA-DP); test: Luminex dose/response, average over 5 class II bead types, antibody at 5 × 10^-1 µg/ml
[5] = biological target: HLA class II antigens (HLA-DR, HLA-DQ and HLA-DP); test: Luminex dose/response, average over 5 class II bead types, antibody at 5 × 10^-4 µg/ml
[6] = biological target: HLA class II antigens (HLA-DR, HLA-DQ and HLA-DP); test: Luminex dose/response, average over 5 class II bead types, antibody at 7.8 × 10^-3 µg/ml
[7] = biological target: HLA class II antigens (HLA-DR, HLA-DQ and HLA-DP); test: Luminex dose/response, average over 5 class II bead types, antibody at 1.25 × 10^-1 µg/ml
[8] = biological target: HLA class II antigens (HLA-DR, HLA-DQ and HLA-DP); test: Luminex dose/response, average over 5 class II bead types, antibody at 3.13 × 10^-2 µg/ml
[9] = biological target: HLA class II antigens (HLA-DR, HLA-DQ and HLA-DP); test: Boltzmann sigmoid fit of the Luminex titration curve; asymptote at infinite concentration
[10] = biological target: HLA class II antigens (HLA-DR, HLA-DQ and HLA-DP); test: Boltzmann sigmoid fit of the Luminex titration curve; asymptote as the concentration tends to 0
[11] = biological target: HLA class II antigens (HLA-DR, HLA-DQ and HLA-DP); test: Boltzmann sigmoid fit of the Luminex titration curve; concentration at 50% of the specific signal (MAX-MIN)

fluorescence (average fluorescence units) [1]: 22000
Average fluorescence intensity (fluorescence intensity) [2]: 23600
Average fluorescence intensity (fluorescence intensity) [3]: 1090
Average fluorescence intensity (fluorescence intensity) [4]: 22800
Average fluorescence intensity (fluorescence intensity) [5]: 316
Average fluorescence intensity (fluorescence intensity) [6]: 3520
Average fluorescence intensity (fluorescence intensity) [7]: 18000
Average fluorescence intensity (fluorescence intensity) [8]: 9130
MAX [9]: 24600 fluorescence
MIN [10]: 88 fluorescence
EC50 [11]: 0.05 mg/L
B1: monoclonal chimeric immunoglobulin Hu-IgG1 K [F3.3] (antibody, V domains shown)
VH: EVKLEESGGGLVQPGGSMKLSCVASGFTFSNSWMNWVRQSPEKGLEWVAEIRLKSNNYATRYAESVKGRFTISRDDSKSSVYLQMNNLRSEDTAIYYCTPLSYSFDYWGQGTTVTVST
VL: QIVLTQSPAIMSASPGEKVTMTCSASSIVRYMYWFQQKPGSSPRLLIYDTSSLSSGVPVRFSGSGSGTSYSLTISRMEAEDAATYFCQQWSSYPLTFGGGTKLEIKR
